Source: article PMC3264736

Molecular target: Pitx2 homeodomain wild-type (UniProt Q99697 85-144)
Test: ITC

B1: TAATCC consensus DNA (dsDNA)
DNA 1: GCTCTAATCCCCG
DNA 2: CGGGGATTAGAGC
  Kd: 66 nM
